From patent US20240279345A1, “ALPHA 5 BETA 1 INTEGRIN BINDING AGENTS AND USES THEREOF” (PASITHEA THERAPEUTICS CORP., priority 2021, published 2024)

Experiments:
[1] = target: T1, recombinant human α5β1 integrin (rh-α5β1) (Homo sapiens, UniProt P05556+P08648); test: Plate-based ELISA reactivity to rh-α5β1; assay type: binding; details: selected for further characterization among α5 specific hybridomas (28 selected)
T1 construct: purchased R&D Systems 3230-A5
Method in brief: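 Hybridoma supernatants, diluted 1:10, incubated 1 h at RT on wells coated with rh-α5β1 at 1 μg/mL in PBS with 0.5 mM MgCl2, MnCl2, CaCl2 and blocked with 2% BSA. Detection via biotinylated goat anti-mouse, poly-HRP streptavidin and TMB; absorbance 450 nm.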

U87MG cells = test: Cellular detachment of U87MG cells from FN coated plates; assay type: cell-based; details: for antibody concentration at which cellular detachment was seen: A-15B08 at 1 and 3 hours, A2-7A05 only obvious at 3 hours; for cellular detachment (cell rounding) of U87MG cells from FN coated plates: antibodies 2.0-0.016 μg/mL, cRGD 20-0.16 μM, 1 hour and 3 hours
Method: The A-15B08 and A2-7A05 antibodies and cRGD were also tested for their ability to induce dissociation of cellular α5β1 integrin from FN. U87MG cells (HTB-14™, ATCC, Manassas, VA) which were originally derived from a Glioblastoma tumor, are known to express α5β1 integrin, and adhere to FN coated plates. After an overnight incubation on FN coated plates, the U87MG cells formed a loosely packed monolayer and have extended spindle shapes. If the cells are induced to detach from the plates, by trypsin for example, the attachment points are released, and the cells become round. This type of change in morphology was used to assess whether the antibodies and the small molecule inhibitor cRGD can induce U87MG cells to dissociate from FN coated plates.
The following method was used to assess cellular detachment activity: A 96-well cell culture plate (Thermo Fisher Scientific, Waltham, MA, cat. no. 165306) was coated with FN (Human Fibronectin, R&D Systems, Minneapolis, MN 55413, cat. no. 1918-FN) by incubation of 50 uL per well 32 μg/mL FN in 1×PBS for 1 hour at 37° C., then washed 2× with EMEM media (ATCC, Manassas, VA, cat. no. 30-2003) supplemented with 10% Fetal Bovine Serum (FBS; ATCC, Manassas, VA, cat. no. 30-2021). U87MG cells were plated at 20,000 cells per well in EMEM media+10% FBS overnight to allow for maximum adherence. The next day the media was replaced with fresh media that included a 1:5 dilution series of antibodies A-15B08, A2-7A05 or isotype control IgG4 at concentrations of 2.0, 0.4, 0.08 and 0.016 μg/mL or cRGD at 20, 4, 0.8 and 0.16 μM. All tests were run in duplicate. Cell morphology was assessed, and images were captured using a 10× objective of an ECHO Rebel light microscope (ECHO, San Diego, CA).

T1 sequence (P08648 42-894 limits assumed): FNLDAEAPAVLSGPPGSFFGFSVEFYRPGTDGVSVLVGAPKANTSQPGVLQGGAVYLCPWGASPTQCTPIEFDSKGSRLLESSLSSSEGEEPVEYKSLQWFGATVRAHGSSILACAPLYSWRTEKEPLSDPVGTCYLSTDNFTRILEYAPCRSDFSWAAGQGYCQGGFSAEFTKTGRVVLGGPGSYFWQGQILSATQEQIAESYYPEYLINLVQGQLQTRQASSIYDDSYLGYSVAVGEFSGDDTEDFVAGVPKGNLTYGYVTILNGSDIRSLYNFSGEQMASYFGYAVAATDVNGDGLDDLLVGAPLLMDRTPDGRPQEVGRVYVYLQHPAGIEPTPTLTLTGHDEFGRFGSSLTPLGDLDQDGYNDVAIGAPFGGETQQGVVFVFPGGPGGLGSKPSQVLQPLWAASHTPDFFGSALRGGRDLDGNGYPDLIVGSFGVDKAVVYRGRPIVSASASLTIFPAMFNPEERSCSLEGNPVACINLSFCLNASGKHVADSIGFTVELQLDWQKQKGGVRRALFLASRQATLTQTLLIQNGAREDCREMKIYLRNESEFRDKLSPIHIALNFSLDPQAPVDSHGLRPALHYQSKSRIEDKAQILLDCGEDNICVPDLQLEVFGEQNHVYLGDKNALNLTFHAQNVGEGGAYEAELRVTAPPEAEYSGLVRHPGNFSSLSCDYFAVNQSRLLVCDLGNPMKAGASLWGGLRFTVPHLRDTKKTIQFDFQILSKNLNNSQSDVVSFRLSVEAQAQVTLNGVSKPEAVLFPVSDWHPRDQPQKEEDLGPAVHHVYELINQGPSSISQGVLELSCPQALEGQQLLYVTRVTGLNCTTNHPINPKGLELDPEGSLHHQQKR
T1 sequence (P08648 895-995 limits assumed): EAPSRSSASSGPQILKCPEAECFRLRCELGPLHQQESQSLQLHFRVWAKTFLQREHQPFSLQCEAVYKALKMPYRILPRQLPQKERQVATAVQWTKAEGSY
T1 sequence (P05556 21-728 limits assumed): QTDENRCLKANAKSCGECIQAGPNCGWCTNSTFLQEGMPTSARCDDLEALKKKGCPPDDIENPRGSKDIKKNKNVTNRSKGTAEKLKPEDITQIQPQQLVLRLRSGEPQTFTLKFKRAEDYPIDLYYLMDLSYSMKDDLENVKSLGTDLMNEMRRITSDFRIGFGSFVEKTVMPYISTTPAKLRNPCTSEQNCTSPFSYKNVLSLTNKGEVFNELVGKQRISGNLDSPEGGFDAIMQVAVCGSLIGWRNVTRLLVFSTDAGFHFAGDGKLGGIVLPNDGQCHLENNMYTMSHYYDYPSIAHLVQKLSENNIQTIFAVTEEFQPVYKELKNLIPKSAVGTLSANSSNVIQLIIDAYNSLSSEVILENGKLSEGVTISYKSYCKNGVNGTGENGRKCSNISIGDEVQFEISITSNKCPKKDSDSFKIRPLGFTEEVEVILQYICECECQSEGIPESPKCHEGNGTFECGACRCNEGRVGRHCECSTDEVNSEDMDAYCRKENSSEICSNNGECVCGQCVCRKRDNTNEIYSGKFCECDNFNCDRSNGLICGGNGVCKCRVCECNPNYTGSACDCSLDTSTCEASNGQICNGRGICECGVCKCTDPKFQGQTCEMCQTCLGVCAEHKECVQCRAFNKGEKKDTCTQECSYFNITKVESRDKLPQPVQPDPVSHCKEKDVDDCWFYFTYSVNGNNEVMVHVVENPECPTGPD

Row | Selected Human α5 Specific [1] | Molecule | antibody concentration at which cellular detachment was seen (U87MG cells) [µg/mL] | cellular detachment (cell rounding) of U87MG cells from FN coated plates (U87MG cells)
1 | Yes | A2-7A05: anti-α5β1 antibody, VH SEQ ID NO:77, VL SEQ ID NO:78; tested as mouse hybridoma antibody and as human IgG4 chimera (antibody, V domains shown, A2-7A05 VH Sequence; A2-7A05 VL Sequence, tested as mouse hybridoma antibody and as human IgG4 chimera) VH: QVQLQQPGAELVKPGASVKLSCKASGYTFTIYWINWVKQRPGQGLEWIGKIYPGSISTDYNEKFKSKATLTVDTSSSTAYMQLSSLTSDDSAVYYCAITGTGGLAYWGQGTLVTVSA VL: ENVLTQSPAIMSASLGEKVTMTCRASSSVNYMYWYQQKSDASPKLWIYFTSSLAPGVPGRFSGSGSGNSYSLTISTMEGEDAATYYCQQFTTSPFTFGSGTKLEIK | 0.4 | much lower level
2 |  | A-15B08: anti-α5β1 antibody, VH SEQ ID NO:25, VL SEQ ID NO:26; tested as mouse hybridoma antibody and as human IgG4 chimera (antibody, V domains shown, A-15B08 VH Sequence; A-15B08 VL Sequence, tested as mouse hybridoma antibody and as human IgG4 chimera) VH: QVQLKESGPGLVAPSQSLSITCTISGFSLTSYGVHWVRQPPGKGLEWLVVIWSDGSTTYNSTLKSRLSISKDNSKSQVFFKMNSLQTDDTAMYYCARHYDYDGDWFAYWGQGTLVTVSA VL: QIVLTQSPAIMSASLGERVTMTCTASSRVSSNSLHWYQQKPGSSPKLWIYSTSNLASGVPARFSGSGSGTSYSLTISSMEAEDAATYYCHQYLRSPPTFGGGTKLEIK | 0.4 | significant cell rounding
